These results are taken from patent US20120225075A1 (LABRYS BIOLOGICS, published 2012).

Residue numbers refer to the chain shown, from its start.

Assay [1] deals with T1, N-LC-biotinylated rat α-CGRP (rat, N-LC-biotinylated).
T1 construct: Captured on a streptavidin sensor chip; also called α-rat
T1 peptide: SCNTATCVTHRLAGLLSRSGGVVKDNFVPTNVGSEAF
The assay is described as follows: SPR (Biacore 3000), Fab over N-biotin CGRP captured on SA chip, 25 °C. Here is the method: (§1) Interaction analysis was conducted at 25° C. and at 37° C. on a Biacore 3000™ system equipped with streptavidin-coated (SA) sensor chips (Biacore AB, Uppsala, Sweden) using standard Biacore running buffers (HBS-P or HBS-EP). N-LC-biotinylated human and rat α- and β-CGRPs were captured on individual flow cells at low levels (typically 100 response units) to provide the reaction surfaces, while an unmodified flow cell served as a reference channel. Purified Fab fragments of antibodies G1 and G2 were generated. Typically, Fabs were prepared as a two-fold serial dilution using 0.5 μM as the top concentration and injected for 1-min at 100 μl/min allowing up to two hours for the dissociation time. Surfaces were regenerated with a mixture of 50% v/v ethanol+25 mM NaOH for G1 Fab and 2:1 v/v Pierce Gentle Elution Buffer/4M NaCl for G2 Fab. […] The binding responses were double-referenced and fit globally to a simple model using BiaEvaluation v. 4.0 software. Affinities were deduced from the quotient of the kinetic rate constants (KD=koff/kₒₙ).
(SPR reads the build-up and loss of mass on a sensor chip optically.)

Assay [2] addresses T2, N-LC-biotinylated human β-CGRP (human (the filing says that cynomolgus …, N-LC-biotinylated)).
T2 construct: Captured on a streptavidin sensor chip; also called β-human/cyno; β-human
T2 peptide: T1 peptide with S1A, V22M, D25S, E35K
The assay is described as above. Here is the method:
as §1

Assay [3] deals with T3, N-LC-biotinylated human α-CGRP (human (the filing says that cynomolgus …, N-LC-biotinylated)).
T3 construct: Captured on a streptavidin sensor chip; also called α-human/cyno; α-human
T3 peptide: T1 peptide with S1A, N3D, D25N, E35K
The assay is described as above. Here is the method: as §1

For assay [4], the target named is T1, N-LC-biotinylated rat α-CGRP. The assay can be described thus: SPR (Biacore 3000), Fab over N-biotin CGRP captured on SA chip, 37 °C. Here is the method: as §1
The target in assay [5] is T3, N-LC-biotinylated human α-CGRP. Described as above. Here is the method:
as §1

For assay [6], the target named is T4, N-LC-biotinylated rat β-CGRP (rat, N-LC-biotinylated (in the assay with CGRP on the chip)).
T4 construct: Captured on a streptavidin sensor chip for G1; also called β-rat
T4 peptide: T1 peptide with E35K
The assay is described as follows: SPR, reverse orientation assay format (data not shown).

In assay [7] the target is T3, N-LC-biotinylated human α-CGRP. The assay can be described thus: SPR (Biacore 3000), side-by-side on the same chip at 37 °C, 20-min dissociation time; 37 C; side-by-side on the same chip; 20-min dissociation. Here is the method: as §1
The results for antibody G1 are expressed in Table 1 below. […] Human and cynomolgus monkey have identical sequences; therefore, the human data also apply to cynomolgus.

Assay [8] concerns the target T4, N-LC-biotinylated rat β-CGRP. The assay is described as follows: SPR (Biacore 3000), Fab over N-biotin-CGRP captured on SA chip, 37 °C; 37 C; upper bound, 20-min dissociation. Here is the method:
as §1
The dissociation of G1 Fab from α-human, β-human, and […] occurs very slowly. As such, the offrate (koff) cannot be measured accurately unless the dissociation phase is monitored for a very long time. As a general rule-of-thumb, the binding response decays at least 5% over the allowed dissociation time for the report of an accurate offrate. […]

Assay [9] deals with T1, N-LC-biotinylated rat α-CGRP. The assay is described as follows: SPR (Biacore 3000), Fab over N-biotin-CGRP captured on SA chip, 25 °C. Here is the method: as §1
The target of assay [10] is T3, N-LC-biotinylated human α-CGRP. The description is as above. Here is the method: as §1
Assay [11] concerns the target T4, N-LC-biotinylated rat β-CGRP. The assay can be described thus: SPR (Biacore 3000), Fab over N-biotin-CGRP captured on SA chip, 37 °C. Here is the method: as §1
In assay [12] the target is T1, N-LC-biotinylated rat α-CGRP. Described as above. Here is the method:
as §1

The target of assay [13] is T2, N-LC-biotinylated human β-CGRP. Described as above. Here is the method: as §1
The target in assay [14] is T3, N-LC-biotinylated human α-CGRP. The description is as above. Here is the method:
as §1

The target in assay [15] is T4, N-LC-biotinylated rat β-CGRP. The assay is described as follows: SPR (Biacore 3000), side-by-side on the same chip, 20-min dissociation time, 37 °C; 37 C; side-by-side on the same chip; 20-min dissociation; rounded figure for three CGRPs. Here is the method:
as §1
(§2) The dissociation of G1 Fab from α-human, β-human, and […] occurs very slowly. As such, the offrate (koff) cannot be measured accurately unless the dissociation phase is monitored for a very long time. As a general rule-of-thumb, the binding response decays at least 5% over the allowed dissociation time for the report of an accurate offrate. However, monitoring long dissociation times on the Biacore is hindered by baseline drift, which is particularly challenging when working at the low surface capacities required for kinetic analyses. […] As a result, the offrates for β-CGRPs cannot be resolved as accurately as those for α-CGRPs.

Assay [16] deals with T2, N-LC-biotinylated human β-CGRP. Described as above. Here is the method:
as §1, §2

Assay [17] has as its target T3, N-LC-biotinylated human α-CGRP. The assay is described as above. Here is the method: as §1, §2
In another assay the target is T5, 125I-human α-CGRP (human, 125I label (position not given)).
T5 peptide: T1 peptide with S1A, N3D, D25N, E35K
The assay is described as follows: competition radioligand binding: 125I-human α-CGRP on SK-N-MC cell membranes (CGRP1-receptor), 25 °C; IC50 given as binding sites (IgG value multiplied by 2); 25 C; radioligand competition on SK-N-MC membranes; whole IgG, IC50 said to be converted to binding sites. Here is the method: A binding assay was performed to measure the IC₅₀ of anti-CGRP G1 antibody in blocking human α-CGRP from binding to the CGRP1-receptor. Membranes (25 μg) from SK-N-MC cells were incubated for 90 minutes at 25° C. in incubation buffer (50 mM Tris-HCl, pH 7.4, 5 mM MgCl₂, 0.1% BSA) containing […] ¹²⁵I-human α-CGRP and varying concentrations of anti-CGRP antibody (0.015 nM-33 nM) in a total volume of 1 ml. Incubation was terminated by filtration through a glass microfiber filter (GF/B, 1 μm) which had been blocked with 0.5% polyethylenimine. The protein-bound radioactivity was determined in a gamma counter.
Background: Loss of bound radioactivity is the signal in a displacement assay; it reports binding, not function.

B1: Fab fragment of antibody G2 (Fab, V domains shown)
VH: EVQLQQSGPELVKPGASVKMSCKASGYTFTSSVMHWVKQKPGQGLEWIGYINPYNDGTKYNEKFKGKATLTSDKSSSTAYMELSSLTSEDSAVYYCAKGGNDGYWGQGTTLTVSS
VL: EIVLTQSPTTMAASPGEKITITCSASSSISSIYLHWYQQKPGFSPKVLIYRASNLASGVPARFSGSGSGTSYSLTIGTMEAEDVATYYCQQGSTIPFTFGSGTKLEIKR
notes: also called G2 Fab; G2 antibody
The Kd is the free concentration of one partner at which half of the binding sites on the other are occupied at equilibrium, for simple one-to-one binding. Low readings indicate a tighter complex, high ones a looser complex. A word on the koff: it is the first-order rate constant of dissociation. The low end stands for slow dissociation, the high end for fast dissociation. A word on the kon: it is the rate constant with which the complex forms. Low values mean slower complex formation, high ones faster complex formation. For the molecule B1, the dissociation constant (Kd) is 900 pM in assay [1]; 19900 pM in [2]; 19100 pM in assay [3]; 3400 pM in assay [4]; 41900 pM in assay [5]. The “T1/2” value in [1] came to 54 min; in [2] it was 7.13 min; in assay [3], 10.1 min; in assay [4], 6.8 min; in assay [5], 2.96 min. In addition, the dissociation rate constant (koff) worked out at 0.000214 s⁻¹ in assay [1]; 0.00162 s⁻¹ in [2]; 0.00115 s⁻¹ in assay [3]; 0.0017 s⁻¹ in [4]; 0.0039 s⁻¹ in assay [5]. Further, the kon in assay [1] amounted to 231000 M⁻¹ s⁻¹; in assay [2], 81400 M⁻¹ s⁻¹; in [3], 60300 M⁻¹ s⁻¹; in assay [4], 500000 M⁻¹ s⁻¹; in [5], 93000 M⁻¹ s⁻¹.

B2: antibody G2 (form in the reverse orientation assay not stated) (antibody, V domains shown)
VH: B1 VH
VL: EIVLTQSPTTMAASPGEKITITCSASSSISSIYLHWYQQKPGFSPKVLIYRASNLASGVPARFSGSGSGTSYSLTIGTMEAEDVATYYCQQGSTIPFTFGSGTKLEIK
notes: Anti-rat CGRP mouse monoclonal antibody
As to B2, the binding result in assay [6] was “binds”.

B3: Fab fragment of antibody G1 (Fab, V domains shown)
VH: EVQLVESGGGLVQPGGSLRLSCAASGFTFSNYWISWVRQAPGKGLEWVAEIRSESDASATHYAEAVKGRFTISRDNAKNSLYLQMNSLRAEDTAVYYCLAYFDYGLAIQNYWGQGTLVTVSS
VL: EIVLTQSPATLSLSPGERATLSCKASKRVTTYVSWYQQKPGQAPRLLIYGASNRYLGIPARFSGSGSGTDFTLTISSLEPEDFAVYYCSQSYNYPYTFGQGTKLEIK
notes: also called G1 Fab; G1 antibody
Turning to B3, the Kd in [7] is 163 pM; in assay [8], < 150 pM; in assay [11], < 152 pM; in [13] it was < 155 pM; in assay [15] it was ~150 pM; in assay [16], ~150 pM. Moreover, in assay [17], the Kd was ~150 pM. The “T1/2” value worked out at 187 min in assay [9]; 1480 min in assay [10]; 147 min in assay [11]; 28.8 min in assay [12]; 166 min in assay [13]; 318 min in assay [14]. For the same molecule, the koff was 6.18e-05 s⁻¹ in assay [9]; 7.8e-06 s⁻¹ in assay [10]; < 7.85e-05 s⁻¹ in assay [11]; 0.000399 s⁻¹ in assay [12]; < 6.98e-05 s⁻¹ in assay [13]; 3.63e-05 s⁻¹ in assay [14]. Besides, the kon worked out at 50800 M⁻¹ s⁻¹ in [9]; 186000 M⁻¹ s⁻¹ in assay [10]; 516000 M⁻¹ s⁻¹ in assay [11]; 155000 M⁻¹ s⁻¹ in [12]; 451000 M⁻¹ s⁻¹ in assay [13]; 587000 M⁻¹ s⁻¹ in [14].

B4: anti-CGRP G1 antibody (whole IgG) (antibody, V domains shown)
VH: B3 VH
VL: EIVLTQSPATLSLSPGERATLSCKASKRVTTYVSWYQQKPGQAPRLLIYGASNRYLGIPARFSGSGSGTDFTLTISSLEPEDFAVYYCSQSYNYPYTFGQGTKLEIKR
notes: also called antibody G1; anti-CGRP antibody
For orientation: IC50 means the point on the concentration scale where inhibition reaches its midpoint. Lower therefore signals greater potency in that assay. B4 yielded an IC50 with 125I-human α-CGRP of 1800 pM.
